# Assay results taken from patent publication US20030064396A1 (published 2003).
# B1: GST-ARAP3: ARAP3 fragment (AS 1735 to 1840 of Seq. ID No. 14) as a GST fusion protein (vector pGEX-KG) (other)
# chain: LDAMHTLREKYGIKSHCHCTNKQNLQVGNFPTMNGVSQVLQNVLNHSNKISLCMPESQQQNTPPKSEKNGGSSPESDVGTDNKLTPPESQSPLHWLADLAEQKARE
# notes: also called ARAP3 fusion protein; GST-ARAP3 spherical particles; not shown: glutathione S-transferase (GST) tag of the vector pGEX-KG (Pharmacia)
# B2: ARAP3 fragment (AS 1430-1539 of Seq. ID No. 20) as fusion protein with VP16 (CMX-VP16-ARAP3-III) (other)
# chain: DLLDAMHTLREKYGIKSHCHCTNKQNLQVGNFPTMNGVSQVLQNVLNHSNKISLCMPESQQQNTPPKSEKNGGSSPESDVGTDNKLTPPESQSPLHWLADLAEQKAREEK
# notes: Expressed in transfected human PC3 cells; also called ID No. 20; not shown: VP16 fusion partner from the vector CMX-VP16
# What was measured:
# [1] = target: human AR fragment coding for the amino acids 325 to 919 (AR2) (human) (UniProt P10275); test: cell-based or functional assay
# [2] = target: T1, human androgen receptor, complete (expression vector pSG5AR) (human, UniProt P10275 1-920, 35S-methionine-labeled in the pull-down of Example 4 (in vitro translated, T7 TNT reticulocyte lysate)); test: GST pull-down of 35S-labelled AR; binding ratio against GST-empty, corrected for the protein amounts by Western blot, Exp. 4
# T1 construct: mature; also called complete AR; 35S-methionine-labeled androgen receptor
# T1 sequence (looked up): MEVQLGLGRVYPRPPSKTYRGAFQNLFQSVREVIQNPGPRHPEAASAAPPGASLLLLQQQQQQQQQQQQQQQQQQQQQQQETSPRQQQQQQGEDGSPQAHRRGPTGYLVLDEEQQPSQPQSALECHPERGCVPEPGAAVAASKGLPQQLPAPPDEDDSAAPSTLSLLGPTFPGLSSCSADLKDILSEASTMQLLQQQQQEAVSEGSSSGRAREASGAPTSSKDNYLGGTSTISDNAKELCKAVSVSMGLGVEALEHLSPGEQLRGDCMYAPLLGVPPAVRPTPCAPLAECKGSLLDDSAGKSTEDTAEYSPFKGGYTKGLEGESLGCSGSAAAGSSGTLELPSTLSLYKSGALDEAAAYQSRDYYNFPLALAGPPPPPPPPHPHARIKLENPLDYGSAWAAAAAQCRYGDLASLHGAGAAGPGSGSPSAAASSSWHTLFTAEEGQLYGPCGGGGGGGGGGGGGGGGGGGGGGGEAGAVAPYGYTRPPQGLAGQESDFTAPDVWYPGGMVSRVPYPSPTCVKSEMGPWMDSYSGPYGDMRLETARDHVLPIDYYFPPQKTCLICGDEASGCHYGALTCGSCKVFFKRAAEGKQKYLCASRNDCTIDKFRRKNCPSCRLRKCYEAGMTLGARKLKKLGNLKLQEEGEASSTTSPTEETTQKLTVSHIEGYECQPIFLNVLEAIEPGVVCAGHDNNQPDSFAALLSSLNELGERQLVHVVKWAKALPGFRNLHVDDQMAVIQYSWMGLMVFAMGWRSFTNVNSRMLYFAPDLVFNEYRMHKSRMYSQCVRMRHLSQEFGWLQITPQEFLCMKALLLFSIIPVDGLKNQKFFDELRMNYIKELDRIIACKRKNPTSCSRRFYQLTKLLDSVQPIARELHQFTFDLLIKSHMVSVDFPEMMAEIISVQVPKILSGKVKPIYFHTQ
# Text: (§1) A GST pull-down experiment is characterized by an experimental procedure, which allows binding of an in vitro expressed GST fusion protein to a similar in vitro expressed and radioactively labeled protein, subsequent separation from non-interacting proteins and detection and identification of the bound protein as a measure of the binding.
# [3] = target: T1, human androgen receptor, complete …; test: GST pull-down of 35S-labelled AR; binding ratio against GST-empty, corrected for the protein amounts by Western blot, Exp. 1
# Text: as §1
# [4] = target: T1, human androgen receptor, complete …; test: GST pull-down of 35S-labelled AR; binding ratio against GST-empty, corrected for the protein amounts by Western blot, Exp. 2
# Text: as §1
# [5] = target: T1, human androgen receptor, complete …; test: GST pull-down of 35S-labelled AR; binding ratio against GST-empty, corrected for the protein amounts by Western blot, Exp. 3
# Text: as §1
# [6] = target: T1, human androgen receptor, complete …; test: mammal hybrid test, VP16 fusion, luciferase reporter in PC3 cells
molecule,measurement,setting,value
two-hybrid clone with an insert comprising 327 base pairs coding for part of the ORF of KIAA1380 (ARAP3) (from UniProt Q15652 1915-2023),yeast-2-hybrid screen with and without 10^-6 mol DHT; lacZ-positive clones (β-galactosidase assay),[1],40 times
B1,Ratio GST-ARAP3/GST-empty,[2],> 100 Ratio
same,Ratio GST-ARAP3/GST-empty,[3],26.5 Ratio
same,Ratio GST-ARAP3/GST-empty,[4],1120 Ratio
same,Ratio GST-ARAP3/GST-empty,[5],> 100 Ratio
B2,binding result,[6],binds
